From patent US20140079774A1
Where no end group is shown, it is not given here.

Molecular target: Met (hepatocyte growth factor receptor, c-Met) on Hep3B cells (human) (UniProt P08581)
Test: flow cytometry saturation binding on Hep3B (cytochalasin D pre-treated), specific binding after subtraction of binding in saturating HGF; 0.015 wt % MC40 (~6 peptides/particle)

UniProt P08581, sequence (P08581 25-1390): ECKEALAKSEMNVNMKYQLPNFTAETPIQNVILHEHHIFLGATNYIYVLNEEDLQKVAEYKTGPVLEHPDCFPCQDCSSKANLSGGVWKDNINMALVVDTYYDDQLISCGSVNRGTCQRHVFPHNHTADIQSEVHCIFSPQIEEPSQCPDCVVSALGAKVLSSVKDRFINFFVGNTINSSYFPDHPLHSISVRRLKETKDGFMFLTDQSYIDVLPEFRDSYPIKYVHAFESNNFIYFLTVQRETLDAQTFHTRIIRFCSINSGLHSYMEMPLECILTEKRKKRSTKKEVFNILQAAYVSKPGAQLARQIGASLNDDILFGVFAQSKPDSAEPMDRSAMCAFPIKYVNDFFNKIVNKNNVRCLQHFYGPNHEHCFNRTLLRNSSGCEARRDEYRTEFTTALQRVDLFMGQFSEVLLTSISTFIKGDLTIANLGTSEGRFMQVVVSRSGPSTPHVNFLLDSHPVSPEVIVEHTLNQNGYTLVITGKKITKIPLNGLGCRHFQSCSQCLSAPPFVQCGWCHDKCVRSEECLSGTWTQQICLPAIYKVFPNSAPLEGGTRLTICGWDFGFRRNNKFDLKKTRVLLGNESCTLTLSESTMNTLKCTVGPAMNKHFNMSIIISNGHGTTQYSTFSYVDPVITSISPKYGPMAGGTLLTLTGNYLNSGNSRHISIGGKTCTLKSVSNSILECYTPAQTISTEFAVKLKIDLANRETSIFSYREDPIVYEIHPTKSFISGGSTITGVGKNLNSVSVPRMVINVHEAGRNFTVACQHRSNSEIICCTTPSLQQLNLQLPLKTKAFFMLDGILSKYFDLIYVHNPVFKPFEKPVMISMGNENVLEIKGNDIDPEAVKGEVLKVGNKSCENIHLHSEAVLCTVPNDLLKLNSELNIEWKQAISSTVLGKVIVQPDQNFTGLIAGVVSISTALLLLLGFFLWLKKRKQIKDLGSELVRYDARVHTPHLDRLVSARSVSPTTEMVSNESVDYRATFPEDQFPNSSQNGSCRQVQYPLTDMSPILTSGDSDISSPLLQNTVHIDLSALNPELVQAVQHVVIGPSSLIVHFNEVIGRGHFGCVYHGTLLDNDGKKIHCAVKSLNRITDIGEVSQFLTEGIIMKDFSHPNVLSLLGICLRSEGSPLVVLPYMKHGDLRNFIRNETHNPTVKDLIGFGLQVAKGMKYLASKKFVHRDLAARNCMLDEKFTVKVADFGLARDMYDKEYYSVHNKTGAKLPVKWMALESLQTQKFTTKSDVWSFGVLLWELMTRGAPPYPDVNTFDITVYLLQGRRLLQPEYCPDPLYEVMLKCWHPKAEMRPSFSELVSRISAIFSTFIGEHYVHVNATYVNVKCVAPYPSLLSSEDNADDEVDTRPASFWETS

- Kd: 1.05 nM
B1: MC40-targeted protocells (mesoporous silica nanoparticle-supported lipid bilayers displaying the MC40 targeting peptide) (peptide, not shown: small tags and cut ends)
peptide: ASVHFPPC
modifications: also: C-terminal Cys conjugated via crosslinker to DOPE in the lipid bilayer of a mesoporous silica protocell
